Experimental data as given in patent US20230235004A1.

Target: recombinant mouse MAdCAM-1 (mouse) (UniProt Q61826)
Test: Octet

Chain of recombinant mouse MAdCAM-1 (mouse) (Q61826 22-364 limits assumed): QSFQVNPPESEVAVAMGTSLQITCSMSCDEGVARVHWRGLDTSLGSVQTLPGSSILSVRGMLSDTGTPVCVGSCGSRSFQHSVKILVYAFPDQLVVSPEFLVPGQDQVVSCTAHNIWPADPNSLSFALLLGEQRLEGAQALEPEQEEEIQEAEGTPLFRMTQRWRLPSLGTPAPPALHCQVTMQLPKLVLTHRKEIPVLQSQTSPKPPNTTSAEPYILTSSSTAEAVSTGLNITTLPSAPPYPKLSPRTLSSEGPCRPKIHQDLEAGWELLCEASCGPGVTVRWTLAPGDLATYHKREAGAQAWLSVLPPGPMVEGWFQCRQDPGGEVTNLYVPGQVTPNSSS

- MAdCAM Octet Binding: 0.16
B1: MAdCAM antibody Table 1 clone 1 (scFv)
scFv: EVQLLESGGGLVQPGGSLRLSCAASGFTFSSYGMHWVRQAPGKGLEWVAVISDDGSDKYYADSVKGRFTISRDNSKNTLYLQMNSLRAEDTAVYYCTTSKYYYYYGMDVWGQGTTVTVSSGGGGSGGGGSGGGGSGGGGSDIQMTQSPSSLSASVGDRVTITCQASQDISKSLNWYQQKPGKAPKLLIYAASSLQSGVPSRFSGSGSGTDFTLTISSLQPEDFATYYCQQGYSTPLTFGGGTKVEIK
